Measured values from publication PMC2139813 (The Journal of Cell Biology, 1997).

Target: human placental moesin (human, UniProt P26038 1-577)
Test: far-Western, overlay or dot blot

binding result: binds
B1: human moesin N-ERMAD (amino acids 1–296) (domain or fragment, UniProt P26038 1-296, looked up)
chain: MPKTISVRVTTMDAELEFAIQPNTTGKQLFDQVVKTIGLREVWFFGLQYQDTKGFSTWLKLNKKVTAQDVRKESPLLFKFRAKFYPEDVSEELIQDITQRLFFLQVKEGILNDDIYCPPETAVLLASYAVQSKYGDFNKEVHKSGYLAGDKLLPQRVLEQHKLNKDQWEERIQVWHEEHRGMLREDAVLEYLKIAQDLEMYGVNYFSIKNKKGSELWLGVDALGLNIYEQNDRLTPKIGFPWSEIRNISFNDKKFVIKPIDKKAPDFVFYAPRLRINKRILALCMGNHELYMRRRK
modifications: biotin (only where used as probe in blot overlays; site not stated)
